In patent publication US20170129954A1 (PROTHENA BIOSCIENCES, published 2017):

How the values were obtained:
[1] = target: T1, human MCAM (antigen of the BLI kinetics in Example 7) (human, UniProt P43121 24-559, limits assumed); test: BLI, ForteBio Octet QK, apparent ka
T1 chain: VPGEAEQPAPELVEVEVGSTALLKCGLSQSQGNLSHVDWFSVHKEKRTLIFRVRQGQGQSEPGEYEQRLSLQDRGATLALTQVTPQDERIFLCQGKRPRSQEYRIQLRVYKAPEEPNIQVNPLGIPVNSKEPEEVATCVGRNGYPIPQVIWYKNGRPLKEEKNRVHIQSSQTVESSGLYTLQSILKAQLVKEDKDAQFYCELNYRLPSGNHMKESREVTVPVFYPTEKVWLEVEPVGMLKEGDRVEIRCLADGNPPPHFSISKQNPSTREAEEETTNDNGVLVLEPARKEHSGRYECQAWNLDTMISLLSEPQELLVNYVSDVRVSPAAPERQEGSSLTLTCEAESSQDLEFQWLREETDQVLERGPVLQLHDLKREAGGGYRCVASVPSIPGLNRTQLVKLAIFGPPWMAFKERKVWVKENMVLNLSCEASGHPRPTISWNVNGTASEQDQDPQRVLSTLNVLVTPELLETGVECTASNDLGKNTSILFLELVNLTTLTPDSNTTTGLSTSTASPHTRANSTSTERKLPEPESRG
Description: Apparent ka, apparent kd and apparent KD are binding kinetic parameters obtained using ForteBio assay formats.

[2] = target: T2, human MCAM domain 2 (amino acids 139-242) hFc (human, UniProt P43121 139-242); test: ForteBio BLI, MCAMhFc domains on anti-human IgG Fc biosensors
T2 construct: One of the various MCAMhFc domains captured on anti-human IgG Fc biosensors; also called MCAMhFc domain; not shown: human IgG Fc (hFc)
T2 sequence: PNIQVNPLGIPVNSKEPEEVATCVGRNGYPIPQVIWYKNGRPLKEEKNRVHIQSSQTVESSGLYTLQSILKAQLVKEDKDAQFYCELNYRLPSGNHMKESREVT
Description: (§1) The following protocol was used: ForteBio anti-human IgG Fc biosensors were used to immobilize various MCAMhFc domains including full length MCAMhFc protein on to biosensor surface. […] After loading these samples into a black 96 well plate, the Octet Red was programmed as follows: 60 seconds for baseline #1; 180 seconds for loading various domains; 60 seconds for baseline #2; 180 seconds for association of antibody to domain; and 240 seconds for dissociation of antibody from domain.
(§2) 1. MCAMhFc final concentration @ 5 ug/ml [0329] […] 3. ForteBio anti-human IgG Fc Capture (AHC) biosensors for kinetics experiments, cat #18-5060 [0331] 4. Block 96 well plate from Greiner Bio-one, cat #655209 [0332] 5. ForteBio Octet Red machine [0333] 6. Fresh tissue culture medium, DMEM with 20% FCS, was used as buffer for dilution The results from these analyses are as follows.

[3] = target: T3, combination of human MCAM domains 1 and 2 (amino acids 19-242) hFc (human, UniProt P43121 19-242); test: as above
T3 construct: One of the various MCAMhFc domains captured on anti-human IgG Fc biosensors; also called combination of domains 1 and 2; MCAMhFc domain; not shown: human IgG Fc (hFc)
T3 sequence: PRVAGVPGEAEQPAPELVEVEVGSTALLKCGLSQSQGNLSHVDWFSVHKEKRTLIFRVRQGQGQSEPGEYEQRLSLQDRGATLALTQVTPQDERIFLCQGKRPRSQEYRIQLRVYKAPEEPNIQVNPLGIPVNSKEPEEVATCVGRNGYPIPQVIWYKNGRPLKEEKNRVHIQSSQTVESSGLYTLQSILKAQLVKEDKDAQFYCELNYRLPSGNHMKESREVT
Description: as §1, §2

[4] = target: T4, human MCAM domain 1 (amino acids 19-129) hFc (human, UniProt P43121 19-129); test: as above
T4 construct: One of the various MCAMhFc domains captured on anti-human IgG Fc biosensors; also called MCAMhFc domain; not shown: human IgG Fc (hFc)
T4 sequence: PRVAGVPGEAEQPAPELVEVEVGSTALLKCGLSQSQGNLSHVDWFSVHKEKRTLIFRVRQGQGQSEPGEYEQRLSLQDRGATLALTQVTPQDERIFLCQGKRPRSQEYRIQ
Description: as §1, §2

[5] = target: T5, human MCAM Y318A single mutant displayed on mammalian cells (human, UniProt P43121 24-646); test: FACS on mammalian cells displaying the mutant
T5 construct: also called Y318A mutant
T5 chain: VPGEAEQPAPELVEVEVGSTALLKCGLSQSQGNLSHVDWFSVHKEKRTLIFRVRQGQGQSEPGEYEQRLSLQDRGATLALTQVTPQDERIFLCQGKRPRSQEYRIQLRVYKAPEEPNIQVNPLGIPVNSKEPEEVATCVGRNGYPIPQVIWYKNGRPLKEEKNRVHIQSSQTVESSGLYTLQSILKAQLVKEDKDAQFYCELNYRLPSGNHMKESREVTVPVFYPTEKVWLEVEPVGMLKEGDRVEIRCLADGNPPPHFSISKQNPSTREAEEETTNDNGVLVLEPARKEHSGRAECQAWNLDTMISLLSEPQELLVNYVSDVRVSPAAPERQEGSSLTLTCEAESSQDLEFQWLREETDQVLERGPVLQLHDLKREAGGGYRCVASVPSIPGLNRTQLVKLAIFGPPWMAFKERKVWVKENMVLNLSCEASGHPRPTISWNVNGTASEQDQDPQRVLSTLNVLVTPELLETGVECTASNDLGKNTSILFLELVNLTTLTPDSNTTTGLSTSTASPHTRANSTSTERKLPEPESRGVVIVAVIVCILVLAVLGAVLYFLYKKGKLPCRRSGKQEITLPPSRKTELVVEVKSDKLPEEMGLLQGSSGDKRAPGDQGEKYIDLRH
Description: Twenty point mutants based on the structure information and shotgun mutagenesis information were designed and generated.

B1: mouse anti-human MCAM monoclonal antibody clone 1749.1.3 (antibody, V domains shown)
VH: DVKLVESGGDLVKPGGSLKLSCAASGFTFSSYIMSWVRQTPEKRLEWVATISSGGSSTYYPDSVKGRFTISRDNAKNTLYLQMSSLKSEDTAMYYCTRDDDYDVKVFAYWGQGTLVTVSA
VL: DIVMSQSPSSLAVSAGEKVTMNCKSSRSLLNSRIRKNYLAWYQQKPGQSPKLLIYWASTRESGVPDRFTGSGSGTDFTLTISSVQAEDLAVYYCKQSYNLLTFGAGTKLELK
notes: Mouse hybridoma monoclonal antibody; also called m1749
For B1, the kon [1] was 1.41e+06 M⁻¹ s⁻¹, the binding result [2] was “no binding (tested: 5 ug/ml)” and the binding result [3] was “no binding (tested: 5 ug/ml)”. B1: no binding (tested: 5 ug/ml) [4]; no binding [5].
